In PMC5342261:

What was measured:
[1] = target: HJ16; assay: ELISA
[2] = target: CH98; assay: ELISA
[3] = target: VRC01; assay: ELISA
[4] = target: B12; assay: yeast display
[5] = target: VRC01; assay: yeast display
[6] = target: B6; assay: yeast display
[7] = target: PGV04; assay: yeast display

| Substance | percent of parent [1] | percent of parent [2] | percent of parent [3] | percent of parent [4] | percent of parent [5] | percent of parent [6] | percent of parent [7] |
| --- | --- | --- | --- | --- | --- | --- | --- |
| AE.A244gp120 D368R | 98% | 0% | 23% | – | – | – | – |
| B.YU2gp120 core (ΔV1, V2, V3 loops) S365K | – | – | – | 28% | 31% | 97% | 8% |
| B.YU2gp120 core (ΔV1, V2, V3 loops) R403V | – | – | – | 76% | 99% | 96% | 94% |
| B.YU2gp120 core (ΔV1, V2, V3 loops) S446K | – | – | – | 113% | 108% | 100% | 104% |
| B.YU2gp120 core (ΔV1, V2, V3 loops) I467K | – | – | – | 51% | 48% | 93% | 43% |
| B.YU2gp120 core (ΔV1, V2, V3 loops) K282V | – | – | – | 51% | 50% | 61% | 74% |
| B.YU2gp120 core (ΔV1, V2, V3 loops) E269G | – | – | – | 95% | 82% | 75% | 83% |
| B.YU2gp120 core (ΔV1, V2, V3 loops) Q337V | – | – | – | 88% | 91% | 87% | 89% |
| B.YU2gp120 core (ΔV1, V2, V3 loops) T455E | – | – | – | 14% | 49% | 92% | 31% |
| B.YU2gp120 core (ΔV1, V2, V3 loops) T240K | – | – | – | 101% | 92% | 95% | 88% |
| B.YU2gp120 core (ΔV1, V2, V3 loops) K490S | – | – | – | 89% | 75% | – | – |
| B.YU2gp120 core (ΔV1, V2, V3 loops) G327R | – | – | – | 90% | 95% | 95% | 89% |
| B.YU2gp120 core (ΔV1, V2, V3 loops) Q344V | – | – | – | 94% | 82% | 96% | 79% |
| B.YU2gp120 core (ΔV1, V2, V3 loops) V200K | – | – | – | 94% | 99% | 90% | 96% |
| AE.A244gp120 I371del; P363N | 80% | 0% | – | – | – | – | – |
| B.YU2gp120 core (ΔV1, V2, V3 loops) H216Y | – | – | – | 108% | 104% | 99% | 96% |
| B.YU2gp120 core (ΔV1, V2, V3 loops) R476V | – | – | – | 97% | 62% | 13% | 91% |

| Substance | percent of parent [1] | percent of parent [2] | percent of parent [3] | percent of parent [4] | percent of parent [5] | percent of parent [6] | percent of parent [7] |
| --- | --- | --- | --- | --- | --- | --- | --- |
| B.YU2gp120 core (ΔV1, V2, V3 loops) L265R | – | – | – | 91% | 88% | 85% | 79% |
| B.YU2gp120 core (ΔV1, V2, V3 loops) R412V | – | – | – | 87% | 104% | 99% | 100% |
| B.YU2gp120 core (ΔV1, V2, V3 loops) G459E | – | – | – | 105% | 28% | 99% | 8% |
| B.YU2gp120 core (ΔV1, V2, V3 loops) T278K | – | – | – | 89% | 196% | 98% | 122% |
| B.YU2gp120 core (ΔV1, V2, V3 loops) D368R | – | – | – | – | 13% | 53% | 7% |
| B.YU2gp120 core (ΔV1, V2, V3 loops) G473R | – | – | – | 113% | 19% | 78% | 17% |
| AE.A244gp120 T278A | 13% | 19% | 96% | – | – | – | – |
| B.YU2gp120 core (ΔV1, V2, V3 loops) D397F | – | – | – | 91% | 73% | 94% | – |
| AE.A244gp120 N276A | – | 0% | 51% | – | – | – | – |
| B.YU2gp120 core (ΔV1, V2, V3 loops) K231T | – | – | – | 98% | 74% | 94% | – |
| B.YU2gp120 core (ΔV1, V2, V3 loops) G434K | – | – | – | 76% | 85% | 85% | 85% |
| B.YU2gp120 core (ΔV1, V2, V3 loops) L405D | – | – | – | 80% | 109% | 99% | 104% |
| B.YU2gp120 core (ΔV1, V2, V3 loops) K121T | – | – | – | 100% | 80% | 102% | 73% |
| B.YU2gp120 core (ΔV1, V2, V3 loops) N197K | – | – | – | 89% | 86% | 93% | 86% |
| B.YU2gp120 core (ΔV1, V2, V3 loops) R419G | – | – | – | 13% | – | 98% | 65% |
| B.YU2gp120 core (ΔV1, V2, V3 loops) Q442V | – | – | – | 72% | 97% | 95% | 92% |
